Source: a protein production outcome set (Wang et al. 2014)

Test: label from the status in PepcDB records

| Sequence | protein production |
| --- | --- |
| MALFSVFSVAQTTTYHTKNKKSISAYQEAELLQQQRRWNEAINVLDAVIQKDTGFVEAYYKVGSMYMAMGNKTAAARYFCKGADLDPSVKAFAGAYFTAGELSYNEGEYVRAKRYFGYALNVQSGDKKIKEQTPVYIAKCDFAIDMMKHPVDFKPVLMTPPINTAFAQSHPVLTADGKTLYYTTLSGLSRQDDENIVTSSYVNGKWSEPVSISDNINSKENEGTCSISMDGNSLVFVGCGKADGLGSCDIYISKKVNNVWSKPTNLGPAVNSTSWDSHPSLSADGRTLYFVSARKGGFGKEDIYVTHLDEKGIWSPAQNAGSSVNTSGTEFSPFIHADGTTLYFSSNGLLGMGGLDIFYTTGNDTTWAVPKNIGYPLNTYANDETLFITVDGAKGYYSRFDGTNVNYNSRIFLYEFDVPQSLKPGRISTFAKGHIYDKQTKKPLGARVELVDIETNTVTQAVQSDSITGEYTIVITEGKEYAVYVNRNKYLFESLNVNYKNPTSFDALTLDIYLTPIISGSHVTLNNIFFQTNSYQLEEKSISELKKLINFIQINPAQRVELAGYTDNVGTAEANLKLSAMRAKAVYDYLIQHGIKPAGITYKGYGAASPVADNNSEEGRQKNRRLEIKIL | failed |
| MALGFGMKMELQQFLDALASSPEKIEFETTMAVIEDNYDFTPAAFTNGNTQNDANENNGSCKIFAFGLLNALDKEATLACFGRFYREDVLLHPENNDHQNIRNFMVTGWEGIQFETSALTAK | not failed |
| MALHNDGFINRQFVFGDFVLQFDGVLCHQEQQISVPPKELAVLTALLEAAGELVSKDALLDKVWPDGDVNEESLTRCIYALRRILLEDKSNRYIDTVYGKGYRFSRPVAVVSRPTASAQKCTMAILPFRTDGQLDSLELHAALVQCLSRYSPFGLVVMPATITRNCGDIADIIAMIDQLRPDYYLAGQVQQQGDSWLLRVELVRADGHQLVHHESIEIGPGEHIAALQTRLASLLPQRIPGLRWHHGNGSQLDSLDMAITYLNGRHELQQHTPSSLKRALALFLQCTSSQPGNALPYCSLAECYLALAQLGLFDQERALDGAQQAVDRAVALDAANPQALGLLALLSSLRGQQTIAEALFEQARMLAPDSIDIHYYHAWHLFLSDRIPLAQRSLDACLERDPSRIAASMLQLWLTYCEHRLDEAVALGKRQLCQYGQDHPVLQSMLGLMLAIQGQHAQAEELAAAVKASGEEAGLLAVNGCYIAHCRMGDAARPLLQDFLSRVDCRQVRSGLLPLILALHGRAGALHLLGQLESDRYLWLRASRQDPRLAGLFHPHLSEAA | failed |
| MALIEGFRVRNYRALRDITLGRLSAEQQGDPLTPFTVVIGKNGVGKSTLFDAFGFVADCLSKDVESACDDKQRGGFERMRSLGTEESIRFDIYYREAKGERPITYELAINLDSSGRPFVESEVLKQRRKGQKHGRPYPFLRLHHGVGKVWAGEEAVETSSGEEDRAQEDVELTDLRQLGIATLGTLKEHPRIKRFRDFLKGWHLSYFHPDSARSIPSAGAQRHLDVHGENIGNVVQYMEREHKERFKTILDRIAAKIPGVHSIRTTVTQDKRVLLQFNDGAFNDPFYAGQMSDGTLKIFAYLLLMEDPEPPPFICIEEPENGLYHRLLDSLASELRSHATGKKNAPQIFVTTHQPYFVDALSTKEVWILEKGKNGFSTICRASDIDLVRNLVEEGLPLGGLWYGDYLDTK | failed |
| MALIETGPGSTVPMLQARLAARGLTPADVSEVFLTHIHLDHAGAAGHLARHGATIYAHHVGLPHLSDPARLLASARRIYGDDMDALWGEMHPVPDDQLVALNDGDTVPLGGEPLTALDTPGHASHHMSYVLGDVCFTGDVGGVRMPEERHVELPLAPPEIDLDAWRESLAALRAAADRHGLTHLAPTHFGLYDDLPAHFERLEAAIETADDWAARKLPGWDDGDEALQDAVTQWMRSRASDHGVDGDAWDRYERANPSWMAALGLRRYWTTQTA | failed |
| MALKELTAKEFESYSGNYDLQSFMQTPEMAKLLKKRGYDITYMGYQIDGKMEIISIVYTIPMTGGLHMEVNSGPAHSNSKYLKHFYKELQNYAKSQGALELLIKPYDTYQEFTGEGKPKGAPNTYLIDDLTSIGYHHDGLHIGYPGGEPDWHYVKNLEGITPQNLLKSFSKKGRPLVKKAMSFGIKIRVLKREELHIFKDITSSTSDRRDYMDKSLDYYQDFYDSFGDKAEFVIATLNFREYDHNLQLNAKKLEEQITVLDNRHQNNTDSAKYHRQRTELVNQLASLDKRRKEVEPFIQKFGNQDVVLAGSLFIYSPKETVYLFSGSYTEFNKFYAPAVLQEYVMQEALKRQSTFYNFLGIQGNFDGSDGVLRFKQNFNGYIVRKMGTFRYYPNPLKYKSIQLLKKILRRT | failed |
